These results are taken from patent publication US20120308580A1 (NATIONAL UNIVERSITY OF SINGAPORE, published 2012).

Assay [1] has as its target T1, HBV env183-191 peptide / HLA-A201 complex on cells (human; Hepatitis B virus).
Assay [2] has as its target T2, HBV pol, 455-463 peptide / HLA-A201 complex on T2 cells (human; Hepatitis B virus).
T2 construct: whole, on cells
In words: flow cytometry, peptide pulsed T2 cells (FIG. 8A, peptides of Table 4).

Assay [3] deals with T3, FEC11 (EBV) peptide / HLA-A201 complex on T2 cells (human; EBV). Described as above.
Assay [4] has as its target T4, HBc19-27I peptide / HLA-A201 complex on T2 cells (human; Hepatitis B virus).
T4 construct: whole, on cells
The description is as above.

For assay [5], the target named is T2, HBV pol, 455-463 peptide / HLA-A201 …. Briefly: flow cytometry, peptide pulsed T2 cells. (Flow cytometry measures light scatter and fluorescence of single cells or particles in a stream.)
Assay [6] deals with T5, Mage3, 271-279 peptide / HLA-A201 complex on T2 cells (human).
T5 construct: whole, on cells; also called Mage3-271-79
In words: flow cytometry, peptide pulsed T2 cells.

The target of assay [7] is T6, HBV env, 348-357 peptide / HLA-A201 complex on T2 cells (human; Hepatitis B virus).
T6 construct: whole, on cells
In words: flow cytometry, peptide pulsed T2 cells.

Assay [8] has as its target T3, FEC11 (EBV) peptide / HLA-A201 complex …. In words: flow cytometry, peptide pulsed T2 cells.
Assay [9] addresses c18-27 peptide alone (free, not on HLA-A2) (Hepatitis B virus). In words: pre-incubation with free peptide, then flow cytometry on the specific target.
In assay [10] the target is T1, HBV env183-191 peptide / HLA-A201 …. The source holds these as a separate data set.

B1: E183/A2 mAb (antibody, V domains shown)
VH: QVQLQQPGAEFVKPGASVRLSCKASGYTFSSYWMHWVKQRPGQGLEWIGEIDPSDSYTNYNQKFKGKATLTVDKSSSTAYMQFSSLTSEDSAVYYCATSGYDVGVDYWGQGTTLTVSS
VL: DIQMTQSPASLSASVGETVTITCRASENIYSYLAWYHQKQGKSPQLLVYIAKTLAEGVPSRFSGSGSGTQFSLKIDSLQPEDVGSYYCQHHYGTPYTFGGGTKLEIK
notes: also called HBe183-191 antibody; antibody against HBe183-191
With B1, the “EC50 (read off the curve)” value in [1] was approximately 0.01 µg. The binding result in assay [2], in assay [3] and in assay [4] was “no binding (tested: 1 µM peptide; 0.5 µg mAb)” throughout.

B2: c18/A2 mAb (antibody, V domains shown)
VH: QVQLQQSGPELVKPGASVKISCKASGHTFTSYDINWVKQRPGQGLEWIGWIYPGDGSTKYNEKFKGKATLTADKSSSTAYMQLSSLTSENSAVYFCARRDYGYSYAMDYWGQGTSVTVSS
VL: DIQMTQSPASLSTSVGETVTITCRASGNIHNYLAWYQQKQGKSPQLLVYNAKTLADGVPSRFSGSGSGTQFSLKINSLQPEDFGSYYCQHFWSTPFTFGSGTKLEIK
notes: also called HBc18-27 antibody
Consider B2, for which the binding result was “no binding (tested: 1 µM peptide; 0.5 µg mAb)” in assay [5]; “no binding (tested: 1 µM peptide; 0.5 µg mAb)” in assay [6]; “no binding (tested: 1 µM peptide; 0.5 µg mAb)” in assay [7]; “no binding (tested: 1 µM peptide; 0.5 µg mAb)” in [8]; “no binding (tested: 1 µM peptide; 0.5 µg mAb)” in [4]; “no binding (tested: 1 uM)” in [9]. Also, the binding result in assay [10] is listed as “no binding (tested: 0.5 ug mAb in 50 ul)”.
